Reference: patent US20090011988A1 (Genentech, published 2009)
Where a chain is given by its changes, count along the chain named. In names and notes the source's numbering stands. No end group written: not given here.

B1: 23D3.3 (peptide)
peptide displayed on M13 phage as a fusion to g8p: AMWVCVSDWETVEECIQYMY
modifications: not fully specified (bridges); cysteine pairing not given here; also: displayed on phage coat protein g8
notes: whole phage particle in the assay; also called peptide-phage clone 23D3.3 (g8 display)
B2: 23B3.5 (peptide)
peptide displayed on M13 phage as a fusion to g8p: DKEVCYLGPETWLCFWWP
modifications: not fully specified (bridges); cysteine pairing not given here; also: displayed on phage coat protein g8
notes: whole phage particle in the assay; also called peptide-phage clone 23B3.5 (g8 display)
B3: 23A3.4 (peptide)
peptide displayed on M13 phage as a fusion to g8p: EPWLCQYYEAAMLYLCWEEG
modifications: not fully specified (bridges); cysteine pairing not given here; also: displayed on phage coat protein g8
notes: whole phage particle in the assay; also called peptide-phage clone 23A3.4 (g8 display)
B4: 23D3.1 (peptide)
peptide displayed on M13 phage as a fusion to g8p: FGGWSCQPTWVDVYVCNFEE
modifications: not fully specified (bridges); cysteine pairing not given here; also: displayed on phage coat protein g8
notes: whole phage particle in the assay; also called peptide-phage clone 23D3.1 (g8 display)
B5: 23A3.1 (peptide)
peptide displayed on M13 phage as a fusion to g8p: EPWLCQYYEAAMLYLCWEEG
modifications: not fully specified (bridges); cysteine pairing not given here; also: displayed on phage coat protein g8
notes: whole phage particle in the assay; also called peptide-phage clone 23A3.1 (g8 display)
B6: 23B3.2 (peptide)
peptide displayed on M13 phage as a fusion to g8p: EVLLCSDGPQLYLCELYA
modifications: not fully specified (bridges); cysteine pairing not given here; also: displayed on phage coat protein g8
notes: whole phage particle in the assay; also called peptide-phage clone 23B3.2 (g8 display)
B7: 23D3.4 (peptide)
peptide displayed on M13 phage as a fusion to g8p: AMWVCVSDWETVEECIQYMY
modifications: not fully specified (bridges); cysteine pairing not given here; also: displayed on phage coat protein g8
notes: whole phage particle in the assay; also called peptide-phage clone 23D3.4 (g8 display)
B8: 23D3.2 (peptide)
peptide displayed on M13 phage as a fusion to g8p: AMWVCVSDWETVEECIQYMY
modifications: not fully specified (bridges); cysteine pairing not given here; also: displayed on phage coat protein g8
notes: whole phage particle in the assay; also called peptide-phage clone 23D3.2 (g8 display)
B9: 23B3.1 (peptide)
peptide displayed on M13 phage as a fusion to g8p: TGVDCQCGPVHCVCMDWA
notes: whole phage particle in the assay; also called peptide-phage clone 23B3.1 (g8 display)
B10: 23B3.4 (peptide)
peptide displayed on M13 phage as a fusion to g8p: SGVECVWGPQWGFCVEEY
modifications: not fully specified (bridges); cysteine pairing not given here; also: displayed on phage coat protein g8
notes: whole phage particle in the assay; also called peptide-phage clone 23B3.4 (g8 display)
B11: 23B3.7 (peptide)
peptide displayed on M13 phage as a fusion to g8p: GDVECIEGPWGELCVWAD
modifications: not fully specified (bridges); cysteine pairing not given here; also: displayed on phage coat protein g8
notes: whole phage particle in the assay; also called peptide-phage clone 23B3.7 (g8 display)
B12: 23D3.6 (peptide)
peptide displayed on M13 phage as a fusion to g8p: TNWFFVCESGHQDICWLAEE
modifications: not fully specified (bridges); cysteine pairing not given here; also: displayed on phage as g8p fusion
notes: whole phage particle in the assay; also called peptide-phage clone 23D3.6 (g8 display)
B13: 23B3.6 (peptide)
peptide displayed on M13 phage as a fusion to g8p: EVLLCSDGPQLYLCELYA
modifications: not fully specified (bridges); cysteine pairing not given here; also: displayed on phage coat protein g8
notes: whole phage particle in the assay; also called peptide-phage clone 23B3.6 (g8 display)
B14: 23D3.5 (peptide)
peptide displayed on M13 phage as a fusion to g8p: AMWVCVSDWETVEECIQYMY
modifications: not fully specified (bridges); cysteine pairing not given here; also: displayed on phage as g8p fusion
notes: whole phage particle in the assay; also called peptide-phage clone 23D3.5 (g8 display)
B15: IGF-1 L54A displayed on phage (ligand, not shown: large carriers; small tags and cut ends)
chain: SPETLCGAELVDALQFVCGDRGFYFNKPTGYGSSSRRAPQTGIVDECCFRSCDARRLEMYCAPLKPAKSV
modifications: ends and bridges not checked; also: displayed on M13 phage, fused to g3p fragment (249-406) via amber-codon residue
notes: G1S-A70V background
B16: IGF-1 R50A displayed on phage (ligand, not shown: large carriers; small tags and cut ends)
chain: B15 chain with R50A, A54L
notes: G1S-A70V background
B17: IGF-1 M59A displayed on phage (ligand, not shown: large carriers; small tags and cut ends)
chain: B15 chain with A54L, M59A
modifications: not fully specified; ends and bridges not checked
notes: G1S-A70V background
B18: IGF-1 T41A displayed on phage (ligand, not shown: large carriers; small tags and cut ends)
chain: B15 chain with T41A, A54L
notes: G1S-A70V background
B19: IGF-1 R55A displayed on phage (ligand, not shown: large carriers; small tags and cut ends)
chain: B15 chain with A54L, R55A
modifications: not fully specified; ends and bridges not checked
notes: G1S-A70V background
B20: IGF-1 S51A displayed on phage (ligand, not shown: large carriers; small tags and cut ends)
chain: B15 chain with S51A, A54L
modifications: not fully specified; ends and bridges not checked
notes: G1S-A70V background
B21: IGF-1 R56A displayed on phage (ligand, not shown: large carriers; small tags and cut ends)
chain: B15 chain with A54L, R56A
modifications: not fully specified; ends and bridges not checked
notes: G1S-A70V background
B22: IGF-1 L57A displayed on phage (ligand, not shown: large carriers; small tags and cut ends)
chain: B15 chain with A54L, L57A
modifications: not fully specified; ends and bridges not checked
notes: G1S-A70V background
B23: IGF-1 V44A displayed on phage (ligand, not shown: large carriers; small tags and cut ends)
chain: B15 chain with V44A, A54L
notes: G1S-A70V background
B24: Ala(1-3)-IGF-1 displayed on phage (ligand, bacteriophage M13)
chain: AAATLCGAELVDALQFVCGDRGFYFNKPTGYGSSSRRAPQTGIVDECCFRSCDLRRLEMYCAPLKPAKSVSGGGSGSGDFDYEKMANANKGAMTENADENALQSDAKGKLDSVATDYGAAIDGFIGDVSGLANGNGATGDFAGSNSQMAQVGDGDNSPLMNNFRQYLPSLPQSVECRPFVFSAGKPYEFSIDCDKINLFRGVFAFLLYVATFMYVFSTFANILRNKES
notes: range 249-406
B25: IGF-1 P2A displayed on phage (ligand, bacteriophage M13)
chain: B24 chain with A1S, A3E
notes: range 249-406; G1S-A70V background

Target: T1, recombinant human IGFBP-3 (human, UniProt P17936 28-291)
Test: phage ELISA (IGF-blocking phage assay): g8 peptide-phage on an IGFBP-3-coated plate, without and with IGF-1; OD492
Experimental: The plates were then washed ten times, as above, and a solution of rabbit anti-phage antibody mixed with a goat-anti-rabbit conjugate of horseradish peroxidase was added. After an incubation of 1 hour at room temperature, the plates were developed with a chromogenic substrate, o-phenylenediamine (Sigma). The reaction was stopped with addition of ½ volume of 2.5 M H₂SO₄. Optical density at 490 nm was measured on a spectrophotometric plate reader.
In each case, the phagemid clone was grown from a single colony overnight at 37° C. in a culture volume of 5 ml. The phage particles were prepared as described above.

T1 sequence (P17936 28-291 limits assumed): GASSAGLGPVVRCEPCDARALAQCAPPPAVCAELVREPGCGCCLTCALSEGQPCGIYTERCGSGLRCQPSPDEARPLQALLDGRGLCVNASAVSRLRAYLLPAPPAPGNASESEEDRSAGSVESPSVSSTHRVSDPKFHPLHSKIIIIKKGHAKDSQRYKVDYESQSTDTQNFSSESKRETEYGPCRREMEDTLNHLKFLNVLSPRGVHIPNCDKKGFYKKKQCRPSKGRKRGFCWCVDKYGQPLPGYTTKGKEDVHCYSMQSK

Does B1 bind?
Result: binds

Does B2 bind?
Result: binds

Does B3 bind?
Result: binds

Does B4 bind?
Result: binds

Does B5 bind?
Result: binds

Does B6 bind?
Result: binds

Does B7 bind?
Result: binds

Does B8 bind?
Result: binds

Does B9 bind?
Result: binds

Does B10 bind?
Result: binds

Does B11 bind?
Result: binds

Does B12 bind?
Result: binds

Does B13 bind?
Result: binds

Does B14 bind?
Result: binds

Target: T1, recombinant human IGFBP-3
Test: competitive phage ELISA
Experimental: (§1) E. coli cells (XL1-Blue, Stratagene) freshly transformed with phagemid vector were grown overnight in 5 mL 2YT medium (Sambrook et al., supra) in the presence of M13-VCS helper phage (Stratagene). Phage particles were harvested and resuspended in PBS buffer as described in Lowman, H. B., “Phage Display of Peptide Libraries on Protein Scaffolds,” in Cabilly, S. (ed.), Combinatorial Peptide Library Protocols (Humana Press Inc.: Totowa, N.J., 1998), pp. 249-264. Then phage concentrations were normalized to yield a maximal ELISA signal of 0.2-0.4 for each mutant (Lowman, in Cabilly, S. (ed.), supra). Threefold serial dilutions of soluble competitor were prepared on non-absorbent microtiter plates (Nunc, F, 96 wells) with binding buffer (0.5% TWEEN 20%/PBS) containing phage at the previously determined concentrations. […] After blocking, the plates containing immobilized target were washed with 0.05% TWEEN™/PBS buffer and subsequently incubated with 80 μl/well of the premixed phage-competitor solutions for 1 hour at room temperature. […] IC₅₀ values were determined by fitting the binding data to a generic saturation curve (Lowman, in Cabilly, S. (ed.), supra). At least two individual clones of each IGF-1 mutant were assayed. Numbers in Table XIII represent mean±standard deviation of individually assessed IC₅₀ values.

B15 was tested. Which IC50 did it give?
Its IC50 is 1.83 nM.

Which IC50 does the source give for B16 here?
The IC50 was 0.64 nM.

How did the IC50 turn out when B17 was run?
Its IC50 is 0.74 nM.

B18 was tested. Which IC50 did it give?
Its IC50 is 0.43 nM.

B19 was tested. Which IC50 did it give?
The IC50 was 0.66 nM.

How did the IC50 turn out when B20 was run?
Its IC50 is 0.65 nM.

Which IC50 does the source give for B21 here?
Its IC50 is 1 nM.

B22 was tested. Which IC50 did it give?
Its IC50 is 1.78 nM.

With B23 as the binder, how does the IC50 read?
Its IC50 is 1.03 nM.

Which IC50 does the source give for B24 here?
Its IC50 is 1.12 nM.

How did the IC50 turn out when B25 was run?
The IC50 was 0.81 nM.

Target: T2, human IGFBP-1 (human, UniProt P08833 26-259)
T2 sequence (looked up): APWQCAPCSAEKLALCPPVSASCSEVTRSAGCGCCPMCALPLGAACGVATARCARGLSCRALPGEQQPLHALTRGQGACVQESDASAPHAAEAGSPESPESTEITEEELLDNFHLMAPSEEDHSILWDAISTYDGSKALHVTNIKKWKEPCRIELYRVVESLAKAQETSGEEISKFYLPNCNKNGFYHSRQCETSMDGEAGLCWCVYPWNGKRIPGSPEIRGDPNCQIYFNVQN
Test: competitive phage ELISA
Experimental: as §1

For B15, which IC50 is on record?
The IC50 was 23.1 nM.

How did the IC50 turn out when B16 was run?
Its IC50 is 16.2 nM.

How did the IC50 turn out when B17 was run?
Its IC50 is 13.1 nM.

B18 was tested. Which IC50 did it give?
The IC50 was 13.7 nM.

How did the IC50 turn out when B19 was run?
Its IC50 is 9 nM.

Which IC50 does the source give for B20 here?
The IC50 was 13.4 nM.

With B21 as the binder, how does the IC50 read?
The IC50 was 13.1 nM.

For B22, which IC50 is on record?
Its IC50 is 21.8 nM.

Which IC50 does the source give for B23 here?
The IC50 was 18.8 nM.

B24 was tested. Which IC50 did it give?
Its IC50 is 90.4 nM.

With B25 as the binder, how does the IC50 read?
The IC50 was 11 nM.
